The values that follow come from US20090098111A1 (CALIFORNIA INSTITUTE OF TECHNOLOGY, published 2009).

For assay [1], the target named is T1, Xatr (endogenous Xenopus ATR in egg extracts) (Xenopus laevis, UniProt Q9DE14 1-2654).
T1 construct: Endogenous protein of whole or mock-depleted egg extracts, where endogenous Xatrip is also present
The assay is described as follows: GST pull-down from Xenopus egg extracts, immunoblot (FIG. 4A). The method, then: The extracts were filtered through a G25 Sephadex column to remove endogenous glutathione and incubated with glutathione agarose beads. The beads were isolated and immunoblotted for Xatr (top) and Xatrip (bottom). In FIG. 4B, egg extracts (lane 1) were immunodepleted with control (lane 2) or anti-Xatrip antibodies (lanes 3 and 4). For lane 4, recombinant XatripΔN222-FLAG was added back later. Extracts were immunoblotted with anti-Xatr (top) and anti-Xatrip antibodies (bottom). […] Binding of Xatr to glutathione beads was determined by immunoblotting as in FIG. 4A. In FIG. 4D, Xatr was immunoprecipitated from mock-depleted (lanes 1 and 2) and Xatrip-depleted extracts (lanes 3 and 4). Twice as much Xatrip-depleted extract was immunoprecipitated due to its reduced content of Xatr. […] Samples were also immunoblotted for Xatr (top) and Xatrip (middle).

In assay [2] the target is T1, Xatr (endogenous Xenopus ATR in egg …). The assay is described as follows: GST pull-down from Xenopus egg extracts, immunoblot. (In general: A western blot detects proteins with antibodies after separation by electrophoresis.)

T1 sequence (Q9DE14 whole entry): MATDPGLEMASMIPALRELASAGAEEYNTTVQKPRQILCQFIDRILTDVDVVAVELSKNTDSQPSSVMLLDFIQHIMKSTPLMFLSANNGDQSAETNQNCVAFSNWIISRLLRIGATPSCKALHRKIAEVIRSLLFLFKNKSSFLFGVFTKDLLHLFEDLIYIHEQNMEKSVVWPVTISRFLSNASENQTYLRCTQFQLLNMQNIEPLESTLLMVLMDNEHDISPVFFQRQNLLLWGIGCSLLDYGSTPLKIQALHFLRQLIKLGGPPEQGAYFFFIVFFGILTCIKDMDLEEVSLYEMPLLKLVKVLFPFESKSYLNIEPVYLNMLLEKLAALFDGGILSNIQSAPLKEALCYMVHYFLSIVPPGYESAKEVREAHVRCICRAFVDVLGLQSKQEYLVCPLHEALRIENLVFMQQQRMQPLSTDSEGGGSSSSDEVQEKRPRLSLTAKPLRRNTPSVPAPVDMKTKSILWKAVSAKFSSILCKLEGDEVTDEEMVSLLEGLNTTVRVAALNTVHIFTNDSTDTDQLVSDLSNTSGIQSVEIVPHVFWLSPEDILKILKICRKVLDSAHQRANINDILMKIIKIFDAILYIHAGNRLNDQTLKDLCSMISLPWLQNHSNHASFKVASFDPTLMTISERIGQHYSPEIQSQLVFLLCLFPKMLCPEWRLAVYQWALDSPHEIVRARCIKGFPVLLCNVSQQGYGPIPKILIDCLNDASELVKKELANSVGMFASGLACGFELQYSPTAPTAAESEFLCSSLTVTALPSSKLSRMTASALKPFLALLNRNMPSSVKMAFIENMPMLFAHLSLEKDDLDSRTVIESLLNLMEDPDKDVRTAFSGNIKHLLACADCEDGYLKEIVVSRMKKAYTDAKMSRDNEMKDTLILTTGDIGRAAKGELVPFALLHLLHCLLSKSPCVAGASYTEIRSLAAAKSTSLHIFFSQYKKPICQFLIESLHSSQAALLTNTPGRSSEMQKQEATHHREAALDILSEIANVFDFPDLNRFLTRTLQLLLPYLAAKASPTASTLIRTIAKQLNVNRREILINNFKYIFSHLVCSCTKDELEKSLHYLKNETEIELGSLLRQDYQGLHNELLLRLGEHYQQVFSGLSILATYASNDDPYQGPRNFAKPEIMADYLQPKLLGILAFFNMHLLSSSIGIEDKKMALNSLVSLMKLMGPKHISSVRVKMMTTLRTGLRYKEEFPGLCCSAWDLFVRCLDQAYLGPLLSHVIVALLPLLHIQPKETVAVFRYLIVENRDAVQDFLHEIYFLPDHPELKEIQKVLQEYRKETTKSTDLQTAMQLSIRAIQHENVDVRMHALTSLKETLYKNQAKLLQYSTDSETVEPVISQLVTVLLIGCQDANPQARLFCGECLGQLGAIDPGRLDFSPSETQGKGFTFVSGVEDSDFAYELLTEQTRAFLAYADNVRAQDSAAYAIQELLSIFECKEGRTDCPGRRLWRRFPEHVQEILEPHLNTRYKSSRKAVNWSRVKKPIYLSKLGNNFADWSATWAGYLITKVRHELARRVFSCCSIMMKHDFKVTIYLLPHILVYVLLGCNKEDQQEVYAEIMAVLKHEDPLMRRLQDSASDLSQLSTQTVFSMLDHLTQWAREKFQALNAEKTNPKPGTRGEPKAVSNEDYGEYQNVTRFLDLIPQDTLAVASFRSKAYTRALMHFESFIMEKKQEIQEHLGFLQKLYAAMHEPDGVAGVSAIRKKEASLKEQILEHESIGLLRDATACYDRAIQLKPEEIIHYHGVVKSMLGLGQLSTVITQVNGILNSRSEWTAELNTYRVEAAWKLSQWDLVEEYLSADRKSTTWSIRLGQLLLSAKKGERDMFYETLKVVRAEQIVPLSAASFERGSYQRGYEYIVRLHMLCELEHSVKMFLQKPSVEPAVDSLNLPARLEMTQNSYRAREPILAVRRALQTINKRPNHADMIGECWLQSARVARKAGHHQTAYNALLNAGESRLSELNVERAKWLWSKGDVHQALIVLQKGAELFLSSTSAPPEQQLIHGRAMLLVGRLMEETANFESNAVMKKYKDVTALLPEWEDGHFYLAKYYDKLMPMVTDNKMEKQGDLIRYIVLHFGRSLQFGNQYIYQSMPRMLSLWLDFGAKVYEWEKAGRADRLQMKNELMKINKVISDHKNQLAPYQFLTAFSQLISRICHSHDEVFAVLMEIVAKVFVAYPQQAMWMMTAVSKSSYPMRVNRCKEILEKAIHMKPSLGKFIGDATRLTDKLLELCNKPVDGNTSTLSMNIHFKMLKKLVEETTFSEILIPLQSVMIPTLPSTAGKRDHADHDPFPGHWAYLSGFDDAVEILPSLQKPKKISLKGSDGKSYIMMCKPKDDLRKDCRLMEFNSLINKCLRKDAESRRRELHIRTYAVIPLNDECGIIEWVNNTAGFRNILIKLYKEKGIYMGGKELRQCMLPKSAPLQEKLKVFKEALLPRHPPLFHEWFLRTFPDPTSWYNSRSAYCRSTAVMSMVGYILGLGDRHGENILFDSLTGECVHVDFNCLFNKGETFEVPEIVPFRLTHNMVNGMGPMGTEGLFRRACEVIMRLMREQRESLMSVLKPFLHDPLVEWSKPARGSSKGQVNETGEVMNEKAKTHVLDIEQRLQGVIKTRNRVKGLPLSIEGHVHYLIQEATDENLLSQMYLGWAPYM

B1: GST-XtopBP1 (1197-1513) (other)
chain: EFEPKSAMRTPVIENNLQSPTKPDHLTPTPQAPSIAFPLANPPVAPQPREKPVQPFSKEETLKERRFQLSSLDPQERIDYSQLIEELGGVVIEKQCFDPSCTHIVVGHPLRNEKYLASMAAGKWVLHRSYLEACRAAKRFIQEEDYEWGSISILSAVTNINPQQRMLAEAAMRWRKKLQGIKQNMGIAEGAFSGWKVILNVDQTKEPGFKRLLQSGGAKVFAGHSSPLFKEASHLFADFSKLKPDEPRVNVAEAAAQGVNCLKPEYIADYLMKELPPPMNNYCLPDAIPYVRVTGTGLSRKRKTSGDVSDVKRSRHY
notes: BRCT-containing fragment; not shown: glutathione-S-transferase (GST) fusion partner
With B1, the binding result in assay [1] is listed as “no binding”.

B2: GST-XtopBP1 (623-984) (other)
chain: TPVPFLEGSTPLRECVLSVSQFMGAERDSLVYLAGLLGAKVQEFFVRKANPKKGMFASTHLVLKDAEGSKYEAAKKWNLPAVTMNWLLQCARTGRKADEDSYLVDNVPEEDKDESFISQTYKPQAIRLSMHAPCHLENHPEALTKAAVTPLDMNRFKSKAFQSVISQHNKNPQTSGGESKVLQREPSLHLDTPSKFLSKDKLFKPSFDVKDALAALETPGGPNQKNRTQSTPLSEVIGRNLQLAIANSTRQTAAVTASPQLKAAEKKEFDNSKLLINVVICVSKKLIKKQGELNGIAASLGAEYRWCFDESVTHFIYHGRQNDMSREYKSVKERSGIYIVSEHWLFACSEQQKRVPEALYPH
notes: BRCT-containing fragment; also called GST fusion of the 623-984 segment from XtopBP1; not shown: glutathione-S-transferase (GST) fusion partner
For the molecule B2, the binding result in assay [2] is given as “no binding”.

B3: GST-XtopBP1 (333-646) (other)
chain: MASRLDPPADTLENLDISSLQAPDDLLDGCRIYLCGFGGRKLDKLRKLINNGGGVRFNQLTGDVTHIIVGETDEELKQFLNKTQHRPYVLTVKWLLDSFAKGHLQPEEIYFHSSYQQTEMPSPFEPAINLTANKMSSTRGPLNHTRNHQADEDLLSQYTENNSTLIEDEHPKTSNTNSISQMSMHEDMTTCTSQSGLADTSTIIEGGLFSRKQFMVLGFLEEDEACIIDIIKKSAGKVLSSQKRAIADYAVVPLLGCEVESTVGEVVTNAWLGMCIEQEKLLDPHSNALFTPVPFLEGSTPLRECVLSVSQFMG
notes: as for B1
Consider B3, for which, in assay [2], the binding result was “no binding”.

B4: GST-XtopBP1 (1-348) (other)
chain: MASSENEPFCVKFIKSPENSEYFFKAYEAIKQIQSDESLQLTEEREALLLKEKDKSLYICDPFSGAAFSHLKKLGCRIVGPQVVIFCMENQRRVPRAEYPVYNMAMADVTISCTSLDKETREDVHHYVQIMGGCVYRDLNVSVTHLIAGEVGSKKYLVAASLEKPILLPSWVKELWEKSNQRIIRYSDVNMTEYLCPIFRGCTICVTGLSSLDRKEVQRLTALHGGEYTGQLKMNESTHLIVQEAKGQKYECARKWNVHCISVQWFFDSIEKGFCQDETMYKIEPASTIKSVPDTSTPTGGNSKPNSRALYDVSQISNISTSCVNESAFNSAMASRLDPPADTLENLD
notes: as for B1
Take B4: in assay [2], the binding result is recorded as “no binding”.
